The text below walks through data of patent publication US20110105724A1 (published 2011).

One assay concerns the target T1, recombinant human Groβ (human, UniProt P19875 35-107).
T1 construct: also called Gro-beta
T1 sequence (looked up): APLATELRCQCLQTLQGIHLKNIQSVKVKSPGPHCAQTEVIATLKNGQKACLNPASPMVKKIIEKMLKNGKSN
As to the kind of experiment: ELISA, hybridoma supernatant on immobilized recombinant chemokine. The text has this:
(§1) Hyridoma supernatants were screened for their antibody binding activities to recombinant human IL-8, Groβ and ENA-78, immobilized on ELISA plates. […] They were further assessed for their ability to recognize guinea pig and cynomolgus monkey orthologues. Selected hybridomas were cloned by limiting dilution cloning. The antibody designated 1C1.5E5 was one of the antibodies specific for human IL-8 that were selected for further analysis. Following humanization, the antibody combinations designated A0L0, A0L1, A0L2, AIL0, AIL1, and AIL2 also were determined to retain the ability to bind human IL-8.

The target of another assay is T2, recombinant human ENA-78 (human, UniProt P42830 37-114).
T2 sequence (looked up): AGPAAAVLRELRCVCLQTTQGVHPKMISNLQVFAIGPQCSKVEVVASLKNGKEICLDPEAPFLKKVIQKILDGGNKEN
Described as above.
Description: as §1

Assay [1] has as its target T3, human IL-8 (interleukin-8) (human, UniProt P10145 28-99, limits assumed).
T3 construct: also called recombinant human IL-8
T3 sequence (looked up): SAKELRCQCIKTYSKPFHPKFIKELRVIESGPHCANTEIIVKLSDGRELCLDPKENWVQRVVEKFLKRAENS
As to the kind of experiment: SPR (Biacore T100/A100), mouse mAb captured on anti-mouse IgG-Fc, IL-8 as analyte, 1:1 model. The text has this: Protein A or rabbit anti mouse IgG-Fc (Biacore BR-1005-14) was immobilised on a CM5 (Biacore BR-1000-14) chip by primary amine coupling in accordance with the manufactures instructions. Supernatant or purified from parental mouse mAb was captured on the antimouse IgG-Fc surface whilst chimeric antibody was captured on the Protein A surface. After capture defined concentrations of IL8 are passed over the antibody captured surface, a separate capture event was used for each analyte injection. […] An injection of buffer was also passed over the antibody captured surface and this was used for double referencing. For the analysis of the parental supernatant, an additional injection of an irrelevant mAb supernatant was injected over the antibody captured surface to detect any non-specific binding due to supernatant components. The data were analysed using the analysis software inherent to the machine, using the 1:1 model of binding. The work was carried out on the Biacore T100 or A100.
For orientation: In SPR one partner is held on a chip, and binding of the other changes the refractive index at the surface.

Assay [2] deals with T3, human IL-8 (interleukin-8). As to the kind of experiment: SPR (Biacore T100, 25 C), antibody captured on anti-human IgG, IL-8 as analyte, 1:1 model, Run 2. The text has this:
(§2) Briefly the method for Biacore analysis was as follows, anti human IgG (Biacore BR-1008-39) was immobilised on a CM5 sensor chip via primary amine coupling. The humanised or chimeric antibodies were captured on this surface at between 440-500 resonance units (RU's). IL8 was then passed over the captured antibody surface at defined concentrations with regeneration using 3M MgCl₂ after each cycle. A buffer injection over the antibody captured surface was used for double referencing. The run was carried out at 25° C. using HBS-EP buffer, on A Biacore T100 machine. The data was analysed using the 1:1 model in the analysis software inherent to the machine. Table below details the results from two separate runs. Run 1 used IL8 concentrations of 64 nM, 16 nM, 4 nM, 1 nM, 0.25 nM, whilst Run 2 used II8 concentrations 32 nM, 16 nM, 8 nM, 4 nM, 2 nM, 1 nM, 0.5 nM, 0.25 nM.

Assay [3] deals with T3, human IL-8 (interleukin-8). As to the kind of experiment: SPR (Biacore T100, 25 C), antibody captured on anti-human IgG, IL-8 as analyte, 1:1 model, Run 1.
Description: as §2

Assay [4] deals with T3, human IL-8 (interleukin-8). As to the kind of experiment: ELISA.

The Kd is the constant that tells how readily two partners part at equilibrium. A low value points to higher affinity. By koff is commonly meant the first-order rate constant of dissociation. Low readings indicate slow dissociation, high ones fast dissociation. Usually kon stands for the rate constant with which the complex forms. Lower therefore signals slower complex formation.

B1: mouse monoclonal antibody 1C1.5E5 (antibody, V domains shown)
VH: QVQLQQPGVELVMPGASVKLSCKASGYTFTSYWMHWVKQRPGQGLEWIGEIDPSDSNTNYNQKFKGKATLTLDKSSSTAYMQLTSLTSEDSAVYYCARELLHAVYWGQGTTLTVSS
VL: DIQMTQSPSSLSASLGGKVTITCTASQDIHKYISWFQHKPGKGPRLLIHYTSTLQPGIPSRFSGSGSGRDYSFSISNLEPEDVATYYCLQYDNLWTFGGGTKLDIKR
notes: also called 1C1.5E5 mAb
Consider B1, for which, in the assay with recombinant human Groβ, the binding result was “no binding”. The binding result with recombinant human ENA-78 was “no binding”. In assay [1], this molecule returned a Kd of 0.0454 nM and a koff of 0.000184 s⁻¹.

B2: chimeric antibody HcLc made from murine 1C1.5E5 (antibody, human IgG1, kappa, V domains shown)
VH: QVQLQQPGVELVMPGASVKLSCKASGYTFTSYWMHWVKQRPGQGLEWIGEIDPSDSNTNYNQKFKGKATLTLDKSSSTAYMQLTSLTSEDSAVYYCARELLHAVYWGQGTLVTVSS
VL: DIQMTQSPSSLSASLGGKVTITCTASQDIHKYISWFQHKPGKGPRLLIHYTSTLQPGIPSRFSGSGSGRDYSFSISNLEPEDVATYYCLQYDNLWTFGGGTKLDIKR
notes: Murine variable regions on human IgG1 and human kappa constant regions; also called chimera
B2: in assay [2], the affinity, expressed as Kd, was 0.0211 nM; the koff is 0.000566 s⁻¹; the on-rate constant (kon) worked out at 2.68e+07 M⁻¹ s⁻¹. Also, in assay [3], binding was characterised by a dissociation constant (Kd) of 0.0184 nM, the koff was 0.000506 s⁻¹ and the kon amounted to 2.75e+07 M⁻¹ s⁻¹.

B3: humanized antibody A0L1 (antibody, human IgG1, kappa, V domains shown)
VH: QVQLVQSGAEVKKPGASVKVSCKASGYTFTSYWMHWVRQAPGQGLEWMGEIDPSDSNTNYNQKFKGRVTMTRDTSISTAYMELSRLRSDDTAVYYCARELLHAVYWGQGTLVTVSS
VL: DIQMTQSPSSLSASVGDRVTITCTASQDIHKYISWYQQKPGKAPKLLIHYTSTLQPGVPSRFSGSGSGTDFTFTISSLQPEDIATYYCLQYDNLWTFGQGTKVEIKR
notes: Humanized 1C1.5E5, human IgG1/kappa
On to B3, for which, in assay [2], binding was characterised by a dissociation constant (Kd) of 0.0679 nM, the koff turned out to be 0.00106 s⁻¹ and the kon was determined as 1.56e+07 M⁻¹ s⁻¹. For the same molecule, in assay [3], the Kd turned out to be 0.0676 nM, the koff worked out at 0.001 s⁻¹ and the kon was 1.49e+07 M⁻¹ s⁻¹.

B4: humanized antibody A1L0 (antibody, human IgG1, kappa, V domains shown)
VH: QVQLVQSGAEVKKPGASVKVSCKASGYTFTSYWMHWVRQAPGQGLEWMGEIDPSDSNTNYNQKFKGKVTMTRDTSISTAYMELSRLRSDDTAVYYCARELLHAVYWGQGTLVTVSS
VL: DIQMTQSPSSLSASVGDRVTITCTASQDIHKYISWYQQKPGKAPKLLIYDTSTLQPGVPSRFSGSGSGTDFTFTISSLQPEDIATYYCLQYDNLWTFGQGTKVEIKR
notes: Humanized 1C1.5E5, human IgG1/kappa; also called AIL0
As to B4, in assay [2], the Kd stood at 0.0954 nM, the koff was 0.00075 s⁻¹ and the kon stood at 7.87e+06 M⁻¹ s⁻¹. Further, in assay [3], the Kd is 0.0872 nM, the koff was determined as 0.000735 s⁻¹ and the kon is 8.43e+06 M⁻¹ s⁻¹.

B5: humanized antibody A0L2 (antibody, human IgG1, kappa, V domains shown)
VH: QVQLVQSGAEVKKPGASVKVSCKASGYTFTSYWMHWVRQAPGQGLEWMGEIDPSDSNTNYNQKFKGRVTMTRDTSISTAYMELSRLRSDDTAVYYCARELLHAVYWGQGTLVTVSS
VL: DIQMTQSPSSLSASVGDRVTITCTASQDIHKYISWYQQKPGKAPKLLIHYTSTLQPGVPSRFSGSGSGTDYTFTISSLQPEDIATYYCLQYDNLWTFGQGTKVEIKR
notes: as for B3
In the case of B5, the binding result in assay [4] is listed as “binds”.

B6: humanized antibody A0L0 (antibody, human IgG1, kappa, V domains shown)
VH: QVQLVQSGAEVKKPGASVKVSCKASGYTFTSYWMHWVRQAPGQGLEWMGEIDPSDSNTNYNQKFKGRVTMTRDTSISTAYMELSRLRSDDTAVYYCARELLHAVYWGQGTLVTVSS
VL: DIQMTQSPSSLSASVGDRVTITCTASQDIHKYISWYQQKPGKAPKLLIYDTSTLQPGVPSRFSGSGSGTDFTFTISSLQPEDIATYYCLQYDNLWTFGQGTKVEIKR
notes: as for B3
Turning to B6, in assay [2], the Kd worked out at 0.0816 nM, the koff amounted to 0.000772 s⁻¹ and the kon came to 9.5e+06 M⁻¹ s⁻¹. In assay [3], this molecule registered a Kd of 0.0712 nM, a koff of 0.000791 s⁻¹ and a kon of 1.11e+07 M⁻¹ s⁻¹.

B7: humanized antibody A1L2 (antibody, human IgG1, kappa, V domains shown)
VH: QVQLVQSGAEVKKPGASVKVSCKASGYTFTSYWMHWVRQAPGQGLEWMGEIDPSDSNTNYNQKFKGKVTMTRDTSISTAYMELSRLRSDDTAVYYCARELLHAVYWGQGTLVTVSS
VL: DIQMTQSPSSLSASVGDRVTITCTASQDIHKYISWYQQKPGKAPKLLIHYTSTLQPGVPSRFSGSGSGTDYTFTISSLQPEDIATYYCLQYDNLWTFGQGTKVEIKR
notes: Humanized 1C1.5E5, human IgG1/kappa; also called AIL2
For the molecule B7, the binding result in assay [4] is “binds”.

B8: humanized antibody A1L1 (antibody, human IgG1, kappa, V domains shown)
VH: QVQLVQSGAEVKKPGASVKVSCKASGYTFTSYWMHWVRQAPGQGLEWMGEIDPSDSNTNYNQKFKGKVTMTRDTSISTAYMELSRLRSDDTAVYYCARELLHAVYWGQGTLVTVSS
VL: DIQMTQSPSSLSASVGDRVTITCTASQDIHKYISWYQQKPGKAPKLLIHYTSTLQPGVPSRFSGSGSGTDFTFTISSLQPEDIATYYCLQYDNLWTFGQGTKVEIKR
notes: Humanized 1C1.5E5, human IgG1/kappa; also called AIL1
Regarding B8, in assay [4], the binding result was “binds”.
